In patent US20240060126:

Columns and labels:
[1] = target: MspA-(G75S/G77S/L88N/D90N/D91N/D118R/Q126R/D134R/E139K)8
[2] = target: MspA-((Del-L74/G75/D118/L119)E59R/L88N/D90N/D91N/Q126R/D134R/E139K)8
[3] = target: MspA-((Del-L74/G75/D118/L119)D56N/E59R/L88N/D90N/D91N/Q126R/D134N/E139K)8
[4] = target: MspA-((Del-L74/G75/D118/L119)D56N/L88N/D90N/D91N/Q126R/D134R/E139K)8
[5] = target: MspA-((Del-L74/G75/D118/L119)D56N/E59W/L88N/D90N/D91N/Q126R/D134R/E139K)8
[6] = target: MspA-((Del-L74/G75/D118/L119)E59Y/L88N/D90N/D91N/Q126R/D134R/E139K)8
[7] = target: MspA-((Del-L74/G75/D118/L119)D56N/E59T/L88N/D90N/D91N/Q126R/D134R/E139K)8
[8] = target: MspA-((Del-L74/G75/D118/L119)D56N/E59R/L88N/D90N/D91N/Q126R/D134R/E139K)8
[9] = target: MspA-((Del-L74/G75/D118/L119)D56W/E59R/L88N/D90N/D91N/Q126R/D134R/E139K)8
[10] = target: MspA-((Del-L74/G75/D118/L119)G1A/D56N/E59F/L88N/D90N/D91N/Q126R/D134R/E139K)8
[11] = target: MspA-((Del-L74/G75/D118/L119)D56N/E59S/L88N/D90N/D91N/Q126R/D134R/E139K)8
[12] = target: MspA-((Del-L74/G75/D118/L119)D56F/E59R/L88N/D90N/D91N/Q126R/D134R/E139K)8
[13] = target: MspA-((Del-L74/G75/D118/L119)E59F/L88N/D90N/D91N/Q126R/D134R/E139K)8
[14] = target: MspA-((Del-L74/G75/D118/L119)E57R/E59N/L88N/D90N/D91N/Q126R/D134R/E139K)8

B1: T4 Dda-E94C/C109A/C136A/A360C (SEQ ID NO: 24 with mutations E94C/C109A/C136A/A360C) (protein)
chain: MTFDDLTEGQKNAFNIVMKAIKEKKHHVTINGPAGTGKTTLTKFIIEALISTGETGIILAAPTHAAKKILSKLSGKEASTIHSILKINPVTYECNVLFEQKEVPDLAKARVLICDEVSMYDRKLFKILLSTIPPWATIIGIGDNKQIRPVDPGENTAYISPFFTHKDFYQCELTEVKRSNAPIIDVATDVRNGKWIYDKVVDGHGVRGFTGDTALRDFMVNYFSIVKSLDDLFENRVMAFTNKSVDKLNSIIRKKIFETDKDFIVGEIIVMQEPLFKTYKIDGKPVSEIIFNNGQLVRIIEAEYTSTFVKARGVPGEYLIRHWDLTVETYGDDEYYREKIKIISSDEELYKFNLFLGKTCETYKNWNKGGKAPWSDFWDAKSQFSKVKALPASTFHKAQGMSVDRAFIYTPCIHYADVELAQQLLYVGVTRGRYDVFYV
[1]
  Average Signal to Noise (S2N): 11.4
  Mean Current Range: 15.5 pA
  Mean Noise of the Signal: 1.35
  Median Current Range: 15.8 pA
  Median Noise of the Signal: 1.35
  Standard Deviation of the Current Range: 2.23
  Standard Deviation of the Noise of the Signal: 0.14
[2]
  Average Signal to Noise (S2N): 12.8
  Mean Current Range: 16.1 pA
  Mean Noise of the Signal: 1.26
  Median Current Range: 16.2 pA
  Median Noise of the Signal: 1.22
  Standard Deviation of the Current Range: 1.84 pA
  Standard Deviation of the Noise of the Signal: 0.24
[3]
  Average Signal to Noise (S2N): 12.2
  Mean Current Range: 16 pA
  Mean Noise of the Signal: 1.31
  Median Current Range: 16.1 pA
  Median Noise of the Signal: 1.27
  Median S2N: 12
  Percentage of complement slipping forwards: 0.65%
  Standard Deviation of S2N: 0.57
  Standard Deviation of the Current Range: 1.93 pA
  Standard Deviation of the Noise of the Signal: 0.21
[4]
  Average Signal to Noise (S2N): 12.3
  Mean Current Range: 14.7 pA
  Mean Noise of the Signal: 1.2
  Median Current Range: 14.6 pA
  Median Noise of the Signal: 1.17
  Standard Deviation of the Current Range: 1.66 pA
  Standard Deviation of the Noise of the Signal: 0.15
[5]
  Average Signal to Noise (S2N): 11
  Mean Current Range: 15.2 pA
  Mean Noise of the Signal: 1.38
  Median Current Range: 15.1 pA
  Median Noise of the Signal: 1.32
  Standard Deviation of the Current Range: 1.85
  Standard Deviation of the Noise of the Signal: 0.26
[6]
  Average Signal to Noise (S2N): 11
  Mean Current Range: 15 pA
  Mean Noise of the Signal: 1.36
  Median Current Range: 14.9 pA
  Median Noise of the Signal: 1.32
  Median S2N: 11.9
  Percentage of complement slipping forwards: 0.27%
  Standard Deviation of S2N: 1.17
  Standard Deviation of the Current Range: 1.72
  Standard Deviation of the Noise of the Signal: 0.23
[7]
  Average Signal to Noise (S2N): 12.3
  Mean Current Range: 16 pA
  Mean Noise of the Signal: 1.31
  Median Current Range: 16.1 pA
  Median Noise of the Signal: 1.26
  Median S2N: 12.6
  Percentage of complement slipping forwards: 0.8%
  Standard Deviation of S2N: 0.87
  Standard Deviation of the Current Range: 1.87 pA
  Standard Deviation of the Noise of the Signal: 0.24
[8]
  Average Signal to Noise (S2N): 12.5
  Mean Current Range: 15.3 pA
  Mean Noise of the Signal: 1.22
  Median Current Range: 15.3 pA
  Median Noise of the Signal: 1.17
  Percentage of complement slipping forwards: 0.49%
  Standard Deviation of the Current Range: 1.66 pA
  Standard Deviation of the Noise of the Signal: 0.2
  slips forward per kilobase: less than 5 slips forward per kilobase
[9]
  Average Signal to Noise (S2N): 10.7
  Mean Current Range: 14.4 pA
  Mean Noise of the Signal: 1.35
  Median Current Range: 14.3 pA
  Median Noise of the Signal: 1.28
  Median S2N: 11.9
  Percentage of complement slipping forwards: 0.25%
  Standard Deviation of S2N: 0.33
  Standard Deviation of the Current Range: 1.79
  Standard Deviation of the Noise of the Signal: 0.26
[10]
  slips forward per kilobase: less than 5 slips forward per kilobase
[11]
  Average Signal to Noise (S2N): 11.4
  Mean Current Range: 15 pA
  Mean Noise of the Signal: 1.31
  Median Current Range: 14.9 pA
  Median Noise of the Signal: 1.27
  Median S2N: 11.3
  Percentage of complement slipping forwards: 0.43%
  Standard Deviation of S2N: 0.29
  Standard Deviation of the Current Range: 1.7
  Standard Deviation of the Noise of the Signal: 0.23
[12]
  Average Signal to Noise (S2N): 11.7
  Mean Current Range: 15.6 pA
  Mean Noise of the Signal: 1.33
  Median Current Range: 15.6 pA
  Median Noise of the Signal: 1.28
  Median S2N: 12.3
  Percentage of complement slipping forwards: 0.38%
  Standard Deviation of S2N: 0.59
  Standard Deviation of the Current Range: 1.92 pA
  Standard Deviation of the Noise of the Signal: 0.24
  slips forward per kilobase: less than 5 slips forward per kilobase
[13]
  Average Signal to Noise (S2N): 11.4
  Mean Current Range: 15.7 pA
  Mean Noise of the Signal: 1.37
  Median Current Range: 15.7 pA
  Median Noise of the Signal: 1.33
  Median S2N: 11.8
  Percentage of complement slipping forwards: 0.3%
  Standard Deviation of S2N: 0.64
  Standard Deviation of the Current Range: 1.81 pA
  Standard Deviation of the Noise of the Signal: 0.22
[14]
  Average Signal to Noise (S2N): 10.6
  Mean Current Range: 14.7 pA
  Mean Noise of the Signal: 1.4
  Median Current Range: 14.6 pA
  Median Noise of the Signal: 1.22
  Standard Deviation of the Current Range: 1.88
  Standard Deviation of the Noise of the Signal: 0.45
